{
  "source": "patent US20230218739A1",
  "about": "(SICHUAN CLOVER BIOPHARMACEUTICALS, published 2023)",
  "biological_target": "Rabies G-Trimer (CTN-1 Strain) (ectodomain of rabies CTN-1 strain G protein fused in frame to Trimer-Tag) (Rabies virus CTN-1 strain)",
  "data": [
    {"binder": "NGFR-Fc (nerve growth factor receptor NGFR (p75) fused to Fc) (Fc fusion) KEACPTGLYTHSGECCKACNLGEGVAQPCGANQTVCEPCLDSVTFSDVVSATEPCKPCTECVGLQSMSAPCVEADDAVCRCAYGYYQDETTGRCEACRVCEAGSGLVFSCQDKQNTVCEECPDGTYSDEANHVDPCLPCTVCEDTERQLRECTRWADAECEEIPGRWITRSTPPEGSDSTAPSTQEPEAPPEQDLIASTVAGVVTTVMGSSQPVVTRGTTDN", "values": [
      {"measurement": "Kd", "result": 2.92, "unit": "nM"},
      {"measurement": "koff", "result": "2.39e-05", "unit": "s⁻¹"},
      {"measurement": "kon", "result": 8170, "unit": "M⁻¹ s⁻¹"}
    ]}
  ]
}
